Patent publication US10301596B2, “Method of repairing damaged chondrocytes via low-dose irradiation” (KOREA INSTITUTE OF RADIOLOGICAL & MEDICAL SCIENCES, priority 2013, dated 2019)

System: chondrocytes
Assay: Levels of differentiation- and inflammation-related proteins (type II collagen, Sox-9, I-κB, COX-2), Western blot in chondrocytes
Assay type: cell-based
Conditions: 10 ng/mL EGF, 10 nM PMA or 1 μM RA
Protocol: First, the chondrocytes derived from joints were cultured in a DMEM medium according to a known method (E. H. Hong, et al., J. Biol. Chem. 285:1283-1295, 2010). Then, the cultured chondrocytes were inoculated into culture dishes at a density of 5×10^4 cells/cm^2, which were irradiated with 0 cGy, 0.5 cGy, 1.0 cGy, 1.5 cGy, and 2.0 cGy LDR using a ^137Cs-ray source (KIRMS, Korea), and the levels of type II collagen or Sox-9 protein, which are cartilage-specific differentiation marker proteins, and I-κB or COX-2 protein, which are inflammation-related proteins, were determined via Western blot analysis, and the transcriptional activity of Sox-9 protein and NF-κB, which is affected by I-κB, were determined by reporter gene assay (FIGS. 1a and b). […]
Finally, chondrocytes were transfected with 3 μg of GFP-labeled S83A α-catenin, FLAG-labeled S33A β-catenin, or wild type γ-catenin, reacted with or without treatment with 5 μM or 10 μM BAY 11-7082 for 24 hours, and the levels of I-κB and COX-2 proteins were determined via Western blot analysis (FIG. 5g). […]

B1: epidermal growth factor (protein, UniProt P01133 23-1207, looked up)
Pro-epidermal growth factor: PQHWSCPEGTLAGNGNSTCVGPAPFLIFSHGNSIFRIDTEGTNYEQLVVDAGVSVIMDFHYNEKRIYWVDLERQLLQRVFLNGSRQERVCNIEKNVSGMAINWINEEVIWSNQQEGIITVTDMKGNNSHILLSALKYPANVAVDPVERFIFWSSEVAGSLYRADLDGVGVKALLETSEKITAVSLDVLDKRLFWIQYNREGSNSLICSCDYDGGSVHISKHPTQHNLFAMSLFGDRIFYSTWKMKTIWIANKHTGKDMVRINLHSSFVPLGELKVVHPLAQPKAEDDTWEPEQKLCKLRKGNCSSTVCGQDLQSHLCMCAEGYALSRDRKYCEDVNECAFWNHGCTLGCKNTPGSYYCTCPVGFVLLPDGKRCHQLVSCPRNVSECSHDCVLTSEGPLCFCPEGSVLERDGKTCSGCSSPDNGGCSQLCVPLSPVSWECDCFPGYDLQLDEKSCAASGPQPFLLFANSQDIRHMHFDGTDYGTLLSQQMGMVYALDHDPVENKIYFAHTALKWIERANMDGSQRERLIEEGVDVPEGLAVDWIGRRFYWTDRGKSLIGRSDLNGKRSKIITKENISQPRGIAVHPMAKRLFWTDTGINPRIESSSLQGLGRLVIASSDLIWPSGITIDFLTDKLYWCDAKQSVIEMANLDGSKRRRLTQNDVGHPFAVAVFEDYVWFSDWAMPSVMRVNKRTGKDRVRLQGSMLKPSSLVVVHPLAKPGADPCLYQNGGCEHICKKRLGTAWCSCREGFMKASDGKTCLALDGHQLLAGGEVDLKNQVTPLDILSKTRVSEDNITESQHMLVAEIMVSDQDDCAPVGCSMYARCISEGEDATCQCLKGFAGDGKLCSDIDECEMGVPVCPPASSKCINTEGGYVCRCSEGYQGDGIHCLDIDECQLGEHSCGENASCTNTEGGYTCMCAGRLSEPGLICPDSTPPPHLREDDHHYSVRNSDSECPLSHDGYCLHDGVCMYIEALDKYACNCVVGYIGERCQYRDLKWWELRHAGHGQQQKVIVVAVCVVVLVMLLLLSLWGAHYYRTQKLLSKNPKNPYEESSRDVRSRRPADTEDGMSSCPQPWFVVIKEHQDLKNGGQPVAGEDGQAADGSMQPTSWRQEPQLCGMGTEQGCWIPVSSDKGSCPQVMERSFHMPSYGTQTLEGGVEKPHSLLSANPLWQQRALDPPHQMELTQ
modifications: Pro-epidermal growth factor
notes: agent known to induce dedifferentiation of chondrocytes
pathological changes induced by soluble factor (type II collagen, Sox-9, COX-2 proteins): inhibition of expression of type II collagen and Sox-9 proteins and induction of COX-2 protein expression
